Results reported in patent US20240369535A1, “METHODS AND MATERIALS FOR DETERMINING pGC TARGET DOSAGE” (Mayo Foundation for Medical Education and Research, priority 2021, published 2024).

Experiments:
[1] = target: T1, human pGC-A (Homo sapiens, UniProt P16066); test: MCUF-651/NP/pGC-A/cGMP potency assay (Example 5), HEK293 cells overexpressing human pGC-A; assay type: cell-based; conditions: for cGMP potency: particularly at 5 and 10 μM
T1 construct: expressed in transfected cells
T1 sequence (P16066 33-1061): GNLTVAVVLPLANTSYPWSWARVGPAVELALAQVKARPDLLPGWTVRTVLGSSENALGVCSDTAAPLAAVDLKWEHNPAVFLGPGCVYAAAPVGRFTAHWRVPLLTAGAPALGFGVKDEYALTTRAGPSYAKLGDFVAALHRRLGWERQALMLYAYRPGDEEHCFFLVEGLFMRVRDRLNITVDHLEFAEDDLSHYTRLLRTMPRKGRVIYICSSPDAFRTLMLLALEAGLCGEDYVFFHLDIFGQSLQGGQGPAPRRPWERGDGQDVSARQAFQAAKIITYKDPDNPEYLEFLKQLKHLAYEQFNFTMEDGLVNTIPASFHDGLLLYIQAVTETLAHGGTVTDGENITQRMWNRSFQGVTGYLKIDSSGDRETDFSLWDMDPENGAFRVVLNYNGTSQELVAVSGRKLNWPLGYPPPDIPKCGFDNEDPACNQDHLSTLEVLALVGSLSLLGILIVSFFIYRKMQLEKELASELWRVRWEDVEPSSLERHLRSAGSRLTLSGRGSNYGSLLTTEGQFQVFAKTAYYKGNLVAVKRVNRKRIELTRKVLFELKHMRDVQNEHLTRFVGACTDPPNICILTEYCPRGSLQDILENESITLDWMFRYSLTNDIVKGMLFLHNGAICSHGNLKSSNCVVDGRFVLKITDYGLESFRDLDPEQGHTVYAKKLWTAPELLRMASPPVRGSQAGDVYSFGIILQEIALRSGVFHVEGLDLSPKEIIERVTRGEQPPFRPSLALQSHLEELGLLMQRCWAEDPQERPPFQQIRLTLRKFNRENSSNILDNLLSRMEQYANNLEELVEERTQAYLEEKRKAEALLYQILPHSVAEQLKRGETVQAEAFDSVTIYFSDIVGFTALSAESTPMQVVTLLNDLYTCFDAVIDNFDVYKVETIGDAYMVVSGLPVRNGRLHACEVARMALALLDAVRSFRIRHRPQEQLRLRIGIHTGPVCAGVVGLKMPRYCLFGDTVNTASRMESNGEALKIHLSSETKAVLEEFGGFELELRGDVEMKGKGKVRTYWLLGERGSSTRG
Description: (§1) In vitro Cell Culture: HEK 293 cells were stably transfected with human pGC-A or pGC-B using LIPOFECTAMINE™ (Invitrogen, Grand Island, NY) (Chen et al. 2020, supra). Transfected cells (HEK/GC-A or (HEK/GC-B) were maintained in DMEM supplemented with 10% FBS and 250 μg/ml G418. Cells in 48-well plates were grown to 80-90% confluency and then incubated in Hanks Balanced Salt Solution (HBSS, Invitrogen) containing 20 mM HEPES, 0.1% BSA, and 0.5 mM 3-isobutyl-1-methylxanthine (IBMX, Sigma).
MCUF-651/NP/pGC-A/cGMP Potency Assay: Human plasma samples from patients with HT (N=6), ADHF (N=6), and CKD (N=5) were utilized. The details of the recruitment of participants are described above. Stably transfected HEK293 cells engineered to overexpress human pGC-A were cultured (as described above) and grown in 48-well plates to 80-90% confluence. On the day of the experiment, human plasma was diluted 10× with HBSS. 250 μl of diluted plasma was added together with vehicle (DSMO) or the MCUF-651 small molecule pGC-A positive allosteric modulator at doses of 1, 5, or 10 μM to the HEK/pGC-A cells and incubated for 10 minutes at 37° C. Cells were then washed with PBS once and lysed with 0.1 M HCl, and intracellular cGMP levels were measured in the lysate using a commercial cGMP ELISA kit (Enzo Life Sciences, Farmingdale, NY) as instructed by the manufacturer.

[2] = target: T2, human GC-A (Homo sapiens, UniProt P16066); test: Ex vivo MCUF-651 therapeutic potency assay with human plasma (Example 2), HEK293 overexpressing human GC-A; assay type: cell-based
T2 construct: expressed in transfected cells
T2 sequence (P16066 33-1061): T1 sequence (P16066 33-1061)
Description: Ex Vivo MCUF-651 Therapeutic Potency Assay with Human Plasma from Normal Subjects and Patients with Hypertension and Heart Failure: Stored human plasma samples from normal subjects and patients with HT and HF were utilized. The details of the recruitment of these participants were as described elsewhere (Reginauld et al., supra; and Ferrario et al., Hypertension 77:882-890, 2021). […] HEK293 overexpressing human GC-A were cultured and grown as described above. Cells were grown in 48-well plates to 80-90% confluence. On the day of the experiment, cells were pre-incubated with MCUF-651 at doses of 1, 5, or 10 μM or with vehicle (Veh) in 250 μL treatment buffer (as described above) for 5 minutes at 37° C. 25 μL of human plasma was then added and incubated for additional 10 minutes. Cells were then washed with PBS once and lysed with 0.1 M HCl, and intracellular cGMP levels were measured in the lysate using a commercial cGMP ELISA kit (Enzo Life Sciences, Farmingdale, NY) as instructed by the manufacturer.

[3] = target: T2, human GC-A; test: NP/GC-A/cGMP potency assay (Example 1): cGMP production in HEK293 cells overexpressing human GC-A; assay type: cell-based
Description: Transfected cells (HEK/GCA) were maintained in Dulbecco Modified Eagle medium (DMEM) supplemented with 10% FBS, and 250 μg/ml G418. Cells in 48-well plates were grown to 80-90% confluency and then incubated in Hanks Balanced Salt Solution (HBSS, Invitrogen) containing 20 mM HEPES, 0.1% BSA and 0.5 mM 3-isobutyl-1-methylxanthine (IBMX, Sigma).
A stable transfected cell line of HEK293 cells engineered to overexpress human GC-A was grown in 48-well plates to 80-90% confluency. […] Studies were repeated with human plasma with or without addition of the designer GC-A activator, MANP, at doses of 10^−10 M and 10^−8 M.

[4] = target: T3, human pGC-B (Homo sapiens, UniProt P20594); test: NP/pGC-B/cGMP potency assay (Example 5), HEK293 cells overexpressing human pGC-B; assay type: cell-based; conditions: ADHF plasma
T3 construct: expressed in transfected cells
T3 sequence (P20594 23-1047): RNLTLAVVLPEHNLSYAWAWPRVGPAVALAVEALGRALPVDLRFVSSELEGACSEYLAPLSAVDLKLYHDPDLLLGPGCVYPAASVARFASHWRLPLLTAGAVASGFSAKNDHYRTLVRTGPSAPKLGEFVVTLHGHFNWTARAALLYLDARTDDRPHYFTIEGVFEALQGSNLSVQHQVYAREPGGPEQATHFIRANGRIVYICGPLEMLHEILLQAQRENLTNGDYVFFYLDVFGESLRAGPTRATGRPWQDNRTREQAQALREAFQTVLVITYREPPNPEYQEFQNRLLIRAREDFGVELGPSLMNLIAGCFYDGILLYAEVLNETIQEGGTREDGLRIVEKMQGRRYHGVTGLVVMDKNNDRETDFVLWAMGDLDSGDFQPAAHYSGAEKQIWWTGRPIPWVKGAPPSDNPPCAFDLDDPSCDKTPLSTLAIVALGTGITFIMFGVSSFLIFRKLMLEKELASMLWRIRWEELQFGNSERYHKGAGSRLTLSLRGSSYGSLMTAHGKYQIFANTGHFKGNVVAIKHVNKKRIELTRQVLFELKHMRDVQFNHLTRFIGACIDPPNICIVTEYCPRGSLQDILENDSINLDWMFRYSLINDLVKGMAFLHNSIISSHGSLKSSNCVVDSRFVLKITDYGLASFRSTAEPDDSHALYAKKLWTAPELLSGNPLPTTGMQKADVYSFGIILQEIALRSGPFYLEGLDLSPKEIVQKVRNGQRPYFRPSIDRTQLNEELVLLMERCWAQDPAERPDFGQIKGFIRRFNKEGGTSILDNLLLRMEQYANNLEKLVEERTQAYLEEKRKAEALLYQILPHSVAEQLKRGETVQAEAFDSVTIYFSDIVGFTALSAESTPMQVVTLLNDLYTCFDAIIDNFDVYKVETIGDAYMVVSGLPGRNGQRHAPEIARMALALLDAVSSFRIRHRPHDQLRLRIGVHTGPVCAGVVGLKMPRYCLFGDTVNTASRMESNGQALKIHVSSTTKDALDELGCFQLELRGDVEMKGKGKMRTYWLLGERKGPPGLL
Description: as §1
NP/pGC-B/cGMP Potency Assay: Human plasma samples from patients with ADHF (N=6) were utilized. Stably transfected HEK293 cells engineered to overexpress human pGC-B were cultured (as described above) and grown in 48-well plates to 80-90% confluence. On the day of the experiment, human plasma was diluted 10× with HBSS. Diluted plasma (250 μl) was added together with vehicle (PBS), native CNP (an endogenous pGC-B activator), C53 (a designer CNP analog/pGC-B activator) or CRRL-408 (a designer dual pGC-A and pGC-B activator) at doses of 10^−10, 10^−8, or 10^−7 M to the HEK/GC-B cells and incubated for 10 minutes at 37° C. Afterwards, cells were washed once with PBS and lysed with 0.1M HCl. cGMP was then assayed using an ELISA (Enzo Life Sciences) as described elsewhere (Chen et al. 2018, supra).

[5] = target: human pGC-A receptor (human) (UniProt P16066); test: cell-based or functional assay
[6] = target: T1, human pGC-A; test: NP/pGC-A/cGMP potency assay (Example 5), HEK293 cells overexpressing human pGC-A; assay type: cell-based
Description: as §1
NP/pGC-A/cGMP Potency Assay: Human plasma samples from patients with HT (N=6), ADHF (N=6), and CKD (N=5) were utilized. Stably transfected HEK293 cells engineered to overexpress human pGC-A were cultured (as described above) and were grown in 48-well plates to 80-90% confluence. On the day of the experiment, human plasma was diluted 10× with HBSS. […] Afterwards, the cells were washed once with PBS and lysed with 0.1M HCl. cGMP was then assayed using an ELISA (Enzo Life Sciences) as described elsewhere (Chen et al. 2018, supra).

Compound: CN(C)CCN1CCCC(C(=O)Nc2nc3c(F)cc(F)cc3s2)C1 (stereo not drawn) [MCUF-651]
- cGMP potency ([1]; ADHF plasma with higher circulating ANP and BNP): higher cGMP potency
- cGMP potency ([1]; ADHF plasma with lower circulating ANP and BNP): lower cGMP potency
- cGMP levels ([1]; ADHF plasma, dose 1 μM): modestly potentiated
- cGMP levels ([1]; ADHF plasma, dose 5 μM): markedly potentiated
- cGMP levels ([1]; ADHF plasma, dose 10 μM): markedly potentiated
- cGMP levels ([1]; CKD plasma, dose 1 μM): no response
- cGMP levels ([1]; CKD plasma, dose 5 μM): minimally potentiated
- cGMP levels ([1]; CKD plasma, dose 10 μM): minimally potentiated
- cGMP levels ([1]; HT plasma, dose 1 μM): modestly potentiated
- cGMP levels ([1]; HT plasma, dose 5 μM): markedly potentiated
- cGMP levels ([1]; HT plasma, dose 10 μM): markedly potentiated
- generation of cGMP levels ([2]; 1, 5 or 10 μM, plasma from normal subjects, hypertensive and HF patients (all three cohorts)): potentiated
- cGMP potency compared between cohorts ([2]; HF plasma, highest circulating ANP and BNP): greatest cGMP potency

Compound: B-type natriuretic peptide [BNP, reference compound]
- mean cGMP level ([3]; synthetic peptide alone, concentrations corresponding to ADHF deficient ANP and BNP plasma (ANP 16.8, BNP 47.4 pg/mL), 10 min): 6.9 ± 0.9 pmol/mL
- mean cGMP level ([3]; synthetic peptide alone, concentrations corresponding to ADHF elevated ANP and BNP plasma (ANP 350, BNP 1225.7 pg/mL), 10 min): 80.3 ± 16.9 pmol/mL
- mean cGMP level ([3]; synthetic peptide alone, concentrations mimicking healthy subject plasma (ANP 25.5, BNP 27 pg/mL), 10 min): 4.7 ± 0.4 pmol/mL

Compound: C53: designer pGC-B activator, 53 amino acid intermediate form of CNP (SEQ ID NO:5) (DLRVDTKSRAAWARLLQEHPNARKYKGANKKGLSKGCFGLKLDRIGSMSGLGC)
- cGMP levels ([4]; dose 10^-8 M): markedly potentiated
- cGMP levels ([4]; dose 10^-10 M (in a single patient)): modestly potentiated

Compound: C-type natriuretic peptide [CNP, reference compound]
- cGMP levels ([4]; dose 10^-8 M): markedly potentiated

Compound: MANP (designer pGC-A activator) (peptide)
- cGMP in HEK293 cells overexpressing human GC-A; plasma of ADHF patients with elevated ANP and BNP plus 10^-8 M MANP [5]: 201 pmol/mL
- cGMP in HEK293 cells overexpressing human GC-A; plasma of ADHF patients with elevated ANP and BNP plus 10^-10 M MANP [5]: 60.4 pmol/mL

Compound: MANP: designer pGC-A activator, polypeptide SLRRSSCFGGRMDRIGAQSGLGCNSFRYRITAREDKQGWA (SEQ ID NO:1)
- cGMP levels ([6]; ADHF plasma, dose 10^-8 M): markedly potentiated
- cGMP levels ([6]; ADHF plasma, dose 10^-10 M): modestly potentiated
- cGMP levels ([6]; CKD plasma, dose 10^-8 M): markedly potentiated
- cGMP levels ([6]; CKD plasma, dose 10^-10 M): modestly potentiated
- cGMP levels ([6]; HT plasma, dose 10^-8 M): markedly potentiated
- cGMP levels ([6]; HT plasma, dose 10^-10 M): modestly potentiated
- mean cGMP level ([3]; healthy plasma + 10^-8 M MANP): 167 ± 14.1 pmol/mL
- mean cGMP level ([3]; healthy plasma + 10^-10 M MANP): 45 ± 5.5 pmol/mL
- mean cGMP level ([3]; plasma of deficient ANP and BNP ADHF patients + 10^-8 M MANP): 166.9 ± 9.1 pmol/mL
- mean cGMP level ([3]; plasma of deficient ANP and BNP ADHF patients + 10^-10 M MANP): 33.8 ± 1.4 pmol/mL
- mean cGMP level ([3]; plasma of elevated ANP and BNP ADHF patients + 10^-8 M MANP): 200.8 ± 5.4 pmol/mL
- mean cGMP level ([3]; plasma of elevated ANP and BNP ADHF patients + 10^-10 M MANP): 60.4 ± 9.7 pmol/mL

Compound: synthetic human BNP (from UniProt P16860 103-134) (ligand)
- cGMP in HEK293 cells overexpressing human GC-A; synthetic BNP at the level of ADHF plasma with elevated ANP and BNP (1225.7 pg/mL) [5]: 80.3 pmol/mL
- mean cGMP in HEK293 cells overexpressing human GC-A; synthetic BNP at 27 pg/mL (level of healthy plasma) [5]: 4.7 pmol/mL
- mean cGMP in HEK293 cells overexpressing human GC-A; synthetic BNP at the level of ANP and BNP deficient ADHF plasma (47.4 pg/mL) [5]: 6.9 pmol/mL
